B1: CPEB3 Ribozyme (parent)
chain: GGGGGCCACAGCAGAAGCGUUCACGUCGCGGCCCCUGUCAGAUUCUGGUGAAUCUGCGAAUUCUGCUGU

In the RNAGym collection of RNA variant scans (doi:10.7554/elife.80360) one finds self-cleavage data, which are given here for 167 variants.

In this data set the parent is B1. Kind of data set: self-cleavage, relative activity (ratio to wild type); higher = more cleavage; co-transcriptional.
As to C33U C63U, the self-cleavage was determined as 0.936.
Under C34G C35U stands 0.29; under C34G C35A, 0.196.
For the variant C34G C35G, the self-cleavage was 0.244.
With C33A C66G, the self-cleavage came to 0.665.
The same measure for C33A C66U: 0.901; for C33A C66A: 0.76.
Consider C34A C39U, for which the self-cleavage came out at 0.467.
Under C34A C39G stands 0.538; under C33G G50U, 0.578.
The same measure for C33G G50A: 0.687.
Turning to C33G G50C, the self-cleavage stood at 0.661.
Under C32U U67A stands 0.987.
Consider C34G, for which the self-cleavage was 0.74.
The same measure for C34A: 0.869; for C34G G37A: 0.24; for C34G G37U: 0.171.
For C33G C35A, the self-cleavage came out at 0.304.
Take C33G C35G: the self-cleavage was 0.318.
Turning to C33U C54U, the self-cleavage was found to be 0.949.
As for C34G A40U, the self-cleavage was 0.417.
Under C34G A40G stands 0.631; under C34G A40C, 0.326.
Turning to C34G C45U, the self-cleavage stood at 0.746.
Under C34G C45A stands 0.641; under C34G C45G, 0.604; under C32U U36G, 0.297.
The same measure for C33G U43G: 0.377; for C33A C34A: 0.331; for C33A C34G: 0.229.
For the variant C34A G48U, the self-cleavage was 0.877.
Under C34A G48C stands 0.857; under C33U U53G, 0.727.
The same measure for C33U U53A: 0.932.
Under C33U U53C stands 0.861; under C33A G58U, 0.881.
For the variant C33A G58C, the self-cleavage was determined as 0.837.
In the case of C33U A40C, the self-cleavage was 0.619.
Take C33U A40G: the self-cleavage worked out at 0.952.
Under C33U A40U stands 0.906; under C33A G50C, 0.92; under C33A G50A, 0.938.
For C33U A51U, the self-cleavage is 0.963.
Regarding C33U A51G, the self-cleavage turned out to be 0.922.
Consider C33U A51C, for which the self-cleavage was 0.948.
With C33G U55G, the self-cleavage amounted to 0.38.
With C33G U55A, the self-cleavage worked out at 0.571.
For C33U C45A, the self-cleavage came to 0.987.
The same measure for C33U C45G: 0.98.
For C33U C35U, the self-cleavage is 0.884.
Turning to C33U C35G, the self-cleavage worked out at 0.396.
Under C34A C57G stands 0.285; under C34A C57A, 0.255.
C34A C57U: the self-cleavage stood at 0.285.
The same measure for C34A A42C: 0.46; for C34A C66U: 0.874.
The same measure for C34A C66G: 0.667; for C33A U61C: 0.45.
The same measure for C33A U61A: 0.599; for C32U U44A: 0.948; for C33A C57A: 0.345.
On to C33A C57G, for which the self-cleavage turned out to be 0.263.
Consider C33U G56A, for which the self-cleavage worked out at 0.949.
Regarding C33U G56C, the self-cleavage came to 0.849.
As for C33U G56U, the self-cleavage turned out to be 0.963.
In the case of C33A G48C, the self-cleavage came out at 0.898.
Turning to C33A G48U, the self-cleavage came to 0.929.
The same measure for C34A C63U: 0.817; for C34A C63G: 0.411.
The same measure for C34A C63A: 0.495; for C33A U67A: 0.977; for C33A U67G: 1.01.
Under C33A U55G stands 0.319.
As to C33A U55A, the self-cleavage amounted to 0.486.
C33A U55C: the self-cleavage worked out at 0.438.
The same measure for C33G G47C: 0.638.
On to C33G G47A, for which the self-cleavage was 0.663.
C33G G47U: the self-cleavage was 0.682.
Under C34A U46G stands 0.843.
On to C34A G41C, for which the self-cleavage was 0.33.
The same measure for C34A G41U: 0.339; for C34A G41A: 0.341; for C33A C54A: 0.326.
For C33A C54G, the self-cleavage worked out at 0.301.
With C33A C54U, the self-cleavage amounted to 0.723.
Turning to C33U U43G, the self-cleavage was 0.678.
Under C33U U43A stands 0.915.
As for C34A C54U, the self-cleavage was found to be 0.69.
As for C33G U64G, the self-cleavage is 0.395.
On to C33G U64A, for which the self-cleavage came to 0.638.
Under C33G U64C stands 0.484; under C34A G47A, 0.915; under C34A G47U, 0.914.
The same measure for C34A G47C: 0.887; for C33G U62G: 0.374; for C33G U62A: 0.391.
The same measure for C32U U38C: 0.955.
Turning to C34A C45U, the self-cleavage was determined as 0.798.
The same measure for C33A U64C: 0.798; for C33A U64G: 0.672.
Under C33A U64A stands 0.847.
C33U U67G: the self-cleavage is 0.982.
Under C33U U67A stands 0.971; under C33A U69G, 0.988; under C33A U69C, 1.04.
For C33G A52C, the self-cleavage is 0.461.
Under C33G A52G stands 0.663; under C33U U61A, 0.905; under C33U U61C, 0.913.
Consider C33U U61G, for which the self-cleavage was 0.82.
Under C33A U62A stands 0.566; under C33A U49G, 0.981; under C33A U49C, 0.926.
The same measure for C33A U49A: 0.965.
The same measure for C33U U69G: 1.06; for C33U U69A: 1.01.
With C33U U69C, the self-cleavage is 1.05.
Take C34G A51C: the self-cleavage came to 0.504.
The same measure for C34G A51G: 0.625; for C34G A51U: 0.671; for C34A U55C: 0.264.
The same measure for C34A U55G: 0.357; for C34A U53C: 0.565; for C34A U53A: 0.409.
For the variant C34A U53G, the self-cleavage is 0.331.
Under C34A A51G stands 0.469; under C33A U53A, 0.392; under C33A U53G, 0.346.
The same measure for C33A U53C: 0.48; for C33G C39G: 0.513.
The same measure for C33G C39A: 0.387; for C33G C39U: 0.337; for C33G U67C: 0.777.
With C34A G58A, the self-cleavage was 0.656.
For the variant C33U A59C, the self-cleavage was 0.706.
For the variant C33U A59U, the self-cleavage was 0.8.
Under C33U A59G stands 0.959.
Under C33G G48U stands 0.579; under C33G G48C, 0.629; under C33G G48A, 0.648.
The same measure for C33U G48U: 1.03; for C33U G48C: 0.998.
Turning to C33U G48A, the self-cleavage came to 1.
The same measure for C34G C57G: 0.332; for C33G G65C: 0.424.
In the case of C33G G65U, the self-cleavage was determined as 0.376.
For the variant C33G G65A, the self-cleavage is 0.511.
Under C33A G37A stands 0.26; under C33A G37U, 0.12; under C34A U62A, 0.602.
Under C34A U62C stands 0.358; under C34A U62G, 0.434.
The same measure for C33G C66A: 0.526.
In the case of C33G C66U, the self-cleavage came to 0.649.
Turning to C33A A40G, the self-cleavage came to 0.748.
The same measure for C33U G50A: 0.979; for C33U G50C: 1; for C34A G65U: 0.57.
Consider C34A G65A, for which the self-cleavage stood at 0.617.
The same measure for C34A C35U: 0.226; for C34A C35G: 0.177.
As to C34A A59U, the self-cleavage came to 0.436.
Under C34A A59G stands 0.609; under C32U G56A, 0.94; under C32U G56U, 0.971.
Under C34A A52G stands 0.497; under C34A A52C, 0.597.
